“Also recorded” adds a separate entry of the source.
Experiments:
[1] = Solubility of wild-type and mutant EGFs in 20 mM sodium phosphate (pH 5.5); format: physicochemical; conditions: for Solubility: 1 mg in 1 ml 20 mM sodium phosphate pH 5.5, supernatant, Bradford and UV method; for Solubility (Comparison with wild-type %): 20 mM sodium phosphate pH 5.5, relative to wild-type EGF
Description: 1 mg of the respective wild-type and mutant EGFs prepared was dissolved in 1 ml of 20 mM sodium phosphate (pH 5.5 that is the similarly pH environment as cosmetics). In order to remove undissolved EGF, the mixture thus obtained was centrifuged and then supernatant was obtained. The concentration of the supernatant thus obtained was measured by using a Bradford method and UV method.

[2] = Structure and thermal stability (Tm) by circular dichroism; format: physicochemical; conditions: 0.1 mg/ml; for Structure change: circular dichroism 190-250 nm, 20 mM sodium phosphate pH 5.5, 20° C., versus wild-type EGF; for Tm (melting temperature): circular dichroism, 20° C. to 95° C. at 1° C./min
Description: The structure and thermal stability of the purified EGF mutant were measured through a circular dichroism analysis using a J-810 spectrometer (JASCO). As the wild-type EGF, the purified EGF prepared in Example 2 was used. In order to analyze the structure, each EGF was dissolved in 20 mM sodium phosphate (pH 5.5) to be uniformly a final concentration of 0.1 mg/ml. And then, the dissolved EGF solution was added to 0.1 cm cell, and then its structure was analyzed under the conditions of, as 190 nm to 250 nm region, band width 1 nm, response 0.25 sec, data pitch 0.1 nm, scanning speed 20 nm/min, cell length 1 cm, accumulation 8 times, and a temperature of 20° C.
In order to analyze the thermal stability, a wavelength of 200 nm was determined through a comparison analysis of far-UV at the Tm (melting temperature) of 20° C. and 95° C., and progressed in a concentration of 0.1 mg/ml in 0.1 cm cell. As the conditions, it was measured at 20° C. to 95° C. under condition of 1° C./min.
The structure is changed at the band of about 195 nm when generating a folding-unfolding phenomenon. Using it, the melting temperature (Tm) was measured in the range of 20 to 95° C., and thus the accurate Tm value was analyzed. As a result, as for the structure change, most mutants had the similar structure as the wild-type EGF, and thus there were few changes. […] It can be confirmed that the thermal stabilities of M2 and M3 were improved by 87° C.

[3] = Circular dichroism after incubation at 60° C.; format: physicochemical; conditions: for Percentage to wild-type EGF (CD signal value at 200 nm): 0.3 mg/ml, 20 mM sodium phosphate pH 5.5, 60° C., five days
Description: The stabilities of wild-type EGF and mutants should be confirmed through being stored at room temperature for a long period of time, but there is a disadvantage in that the time is too long. Therefore, the incubation test was performed at extreme environment for a short period of time. 0.3 mg/ml of each of the wild-type EGF and mutants was dissolved in 20 mM sodium phosphate (pH 5.5), and then subjected to the incubation in a water bath of 60° C. The sampling was performed per 24 hours unit, and then centrifuged at 13000 rpm and 4° C. for 15 minutes to collect the supernatant. The supernatant was diluted with 20 mM sodium phosphate (pH 5.5), and its structure was measured by using a circular dichroism. And then, the supernatant was added to 0.1 cm cell, and its structure was analyzed under the conditions of, in a region of 190 nm to 250 nm, band width 1 nm, response 0.25 sec, data pitch 0.1 nm, scanning speed 20 nm/min, cell length 1 cm, accumulation 8 times, a temperature of 20° C. […] In order to easily confirm such a result, the graph as illustrated in FIG. 3 is used using the ratio of the signal value at a first day to the signal value at 200 nm that has the biggest difference of signals. Table. […] From such a result, it can be confirmed that the EGF mutants prepared in the present invention have excellent thermal stability and solubility.

NIH3T3 cell line = experiment: Test of cell proliferation after incubation in cosmetic basic essence; format: cell-based; conditions: 60° C., 5 days, versus wild-type EGF, FIG. 4
Description: And then, the incubated samples were centrifuged to collect supernatants.

## C-25-1: EGF mutant, 25th alanine substituted with serine (SEQ ID NO: 72) (NSDSECPLSHDGYCLHDGVCMYIESLDKYACNCVVGYIGERCQYRDLKWWELR; not fully specified; Epidermal growth factor; UniProt P01133 971-1023, looked up, variant A25S)
[1]
  Solubility: 617.8 µg/mL
  Solubility (Comparison with wild-type %): 122%
[2]
  Structure change: No change
  Tm (melting temperature): (76° C.)
[3]
  Percentage to wild-type EGF (CD signal value at 200 nm): 106.38%

## Wild-type EGF: human epidermal growth factor, 53 amino acids, SEQ ID NO:1, produced in E. coli (Example 2) [reference compound]
[1]
  Solubility: 507.3 µg/mL
  Solubility (Comparison with wild-type %): 100%
[2]
  Tm (melting temperature): 76 °C
[2]; listed as Wide type EGF
  Tm (melting temperature): (76° C.)
[3]
  Percentage to wild-type EGF (CD signal value at 200 nm): 100%
[3]; 60° C., 20 mM sodium phosphate pH 5.5, sampling per 24 hours, compared with the mutants, FIG. 3
  CD structure signal over time (in words): significantly decreased

## M3: EGF mutant by fusion of A-8-2, D-38-10, and E-46-2; SEQ ID NO:2 (NSDSECPSSHDGYCLHDGVCMYIEALDKYACNCVVGYCGERCQYRCLKWWELR; not fully specified)
[1]
  Solubility: 681.7 µg/mL
  Solubility (Comparison with wild-type %): 134%
[2]
  Structure change: slightly changed; also recorded: Little change
NIH3T3 cell line
  Cell proliferation activity after incubation: higher cell proliferation activity

Reference: patent publication US9102755B2, “Highly stabilized epidermal growth factor mutants” (PnP Biopharm Co., Ltd., priority 2013, dated 2015)
